Data taken from the supplement of paper PMC7877785.
± gives the uncertainty stated by the source.

Experiment: self-splicing fitness, log relative to wild type (ln ratio); higher = more splicing; Tetrahymena group I intron in knt gene, E. coli kanamycin selection, DiMSum; sequences stand for … in CUCUCU…GGAGGGAAAAGUUAUCAGGCAUGCACCUGGUAGCUAGUCUUUAAACCAAUAGAUUGCAUCGGUUUAAAAGGCAAGACCGUCAAAUUGCGGGAAAGGGGUCAACAGCCGUUCAGUACCAAGUCUCAGGGGAAACUUUGAGAUGGCCUUGCAAAGGGUAUGGUAAUAAGCUGACGGACAUGGUCCUAACCACGCAGCCAAGUCCUAAGUCAACAGAUCUUCUGUUGAUAUGGAUGCAGUUCACAGACUAAAUGUCGGUCGGGGAAGAUGUAUUCUUCUCAUAAGAUAUAGUCGGACCUCUCCUUAAUGGGAGCUAGCGGAUGAAGUGAUGCAACACUGGAGCCGCUGGGAACUAAUUUGUAUGCGAAAGUAUAUUGAUUAGUUUUGGAGUACUCGUGGUCG
Method in brief: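 Pooled colonies went to amplicon sequencing on an Illumina HiSeq 2500 after six replicate transformations. The plates were LB agar with 100 μg/mL carbenicillin, 50 μM IPTG and 0.2% rhamnose, with or without 25 μg/mL kanamycin, incubated overnight at 37°C or 30°C. The E. coli BL21(DE3) library had all eight P1ex-region intron nucleotides randomised, the intron placed in the knt kanamycin-resistance gene on pET-22b(+). DiMSum fitness is the error-weighted combination of replicate fold changes, kanamycin against none, normalised to wild type.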

Sequence | self-splicing fitness (ln) (30 °C) | self-splicing fitness (ln) (37 °C)
GUACAGCAAUAUUACGCGCC | -2.15 ± 0.21 | -1.49 ± 0.34
GUACAGCAAUAUUACGCGGA | -2.49 ± 0.21 | -0.988 ± 0.15
GUACAGCAAUAUUACGCGGU | -3.17 ± 0.15 | -2.31 ± 0.15
GUACAGCAAUAUUACGCUGU | -3.5 ± 0.16 | -3 ± 0.21
GUACAGCAAUAUUACGGAGU | -3.06 ± 0.18 | -1.88 ± 0.15
GUACAGCAAUAUUACGGAUA | -2.46 ± 0.12 | -2.36 ± 0.14
GUACAGCAAUAUUACGGAUC | -0.86 ± 0.081 | -0.551 ± 0.11
GUACAGCAAUAUUACGGCGC | -0.365 ± 0.082 | -0.0882 ± 0.095
GUACAGCAAUAUUACGGGAG | -3.04 ± 0.21 | -1.92 ± 0.15
GUACAGCAAUAUUACGGGGC | -3.74 ± 0.35 | -2.77 ± 0.47
GUACAGCAAUAUUACGUCAA | -1.75 ± 0.16 | -2.38 ± 0.21
GUACAGCAAUAUUACGUCCG | -3.2 ± 0.23 | -1.74 ± 0.17
GUACAGCAAUAUUACGUCGU | -1.34 ± 0.11 | 0.338 ± 0.11
GUACAGCAAUAUUACGUGCA | -3.96 ± 0.22 | -2.17 ± 0.16
GUACAGCAAUAUUACGUGCG | -2.57 ± 0.12 | -1.21 ± 0.095
GUACAGCAAUAUUACGUGUU | -2.74 ± 0.075 | -1.54 ± 0.1
GUACAGCAAUAUUACGUUAU | -4.01 ± 0.25 | -1.87 ± 0.14
GUACAGCAAUAUUACGUUCG | -1.45 ± 0.061 | -0.316 ± 0.079
GUACAGCAAUAUUACGUUCU | -1.98 ± 0.1 | -0.102 ± 0.1
GUAGAGCAAUAUUACGACAA | 0.152 ± 0.14 | -0.0812 ± 0.17
GUAGAGCAAUAUUACGAGGC | -3.01 ± 0.19 | -2.63 ± 0.29
GUAGAGCAAUAUUACGAGGU | -1.12 ± 0.16 | -1.33 ± 0.32
GUAGAGCAAUAUUACGAUCG | -2.6 ± 0.15 | -0.951 ± 0.17
GUAGAGCAAUAUUACGAUGG | -2.34 ± 0.091 | -1.59 ± 0.11
GUAGAGCAAUAUUACGCAAA | -2.21 ± 0.16 | -1.59 ± 0.17

Sequence | self-splicing fitness (ln) (30 °C) | self-splicing fitness (ln) (37 °C)
GUAGAGCAAUAUUACGCAAG | -0.744 ± 0.22 | -1.49 ± 0.27
GUAGAGCAAUAUUACGCACU | -1.24 ± 0.25 | 0.332 ± 0.23
GUAGAGCAAUAUUACGCAGA | – | -1.92 ± 0.32
GUAGAGCAAUAUUACGCCUU | -0.0606 ± 0.13 | 0.0599 ± 0.17
GUAGAGCAAUAUUACGCGGG | -2.65 ± 0.15 | -1.43 ± 0.17
GUAGAGCAAUAUUACGCUCG | -1.59 ± 0.13 | -0.12 ± 0.16
GUAGAGCAAUAUUACGGACA | -0.864 ± 0.17 | -1.72 ± 0.27
GUAGAGCAAUAUUACGGACC | -1.22 ± 0.14 | 0.305 ± 0.2
GUAGAGCAAUAUUACGGAGC | -0.91 ± 0.14 | -0.327 ± 0.2
GUAGAGCAAUAUUACGGAUC | -0.404 ± 0.1 | -0.0325 ± 0.14
GUAGAGCAAUAUUACGGCUA | -0.487 ± 0.11 | 0.641 ± 0.16
GUAGAGCAAUAUUACGGUCC | -1.01 ± 0.17 | -0.565 ± 0.28
GUAGAGCAAUAUUACGGUGG | -3.39 ± 0.45 | -0.894 ± 0.23
GUAGAGCAAUAUUACGUCGC | -0.635 ± 0.15 | -0.21 ± 0.18
GUAGAGCAAUAUUACGUGCU | – | -1.29 ± 0.39
GUAGAGCAAUAUUACGUGGC | -1.52 ± 0.17 | -1.29 ± 0.27
GUAUAGCAAUAUUACGAACU | -1.75 ± 0.23 | 0.477 ± 0.24
GUAUAGCAAUAUUACGACCA | -0.996 ± 0.17 | -0.193 ± 0.17
GUAUAGCAAUAUUACGCGCU | -2.22 ± 0.16 | -0.818 ± 0.16
GUAUAGCAAUAUUACGCUGU | -2.81 ± 0.26 | -2.48 ± 0.3
GUAUAGCAAUAUUACGGACC | -1.89 ± 0.5 | -2.56 ± 0.3
GUAUAGCAAUAUUACGGCCG | -2.76 ± 0.21 | -1.09 ± 0.17
GUAUAGCAAUAUUACGGGAU | -3.5 ± 0.29 | -0.308 ± 0.11
GUAUAGCAAUAUUACGGGUA | -2.56 ± 0.27 | -1.28 ± 0.19
GUAUAGCAAUAUUACGGUAU | -2.73 ± 0.18 | -2.26 ± 0.19

Sequence | self-splicing fitness (ln) (30 °C) | self-splicing fitness (ln) (37 °C)
GUAUAGCAAUAUUACGGUUG | -3.77 ± 0.3 | -1.35 ± 0.3
GUAUAGCAAUAUUACGUAGA | – | -2.07 ± 0.32
GUAUAGCAAUAUUACGUUCA | -1.06 ± 0.2 | -0.424 ± 0.23
GUCAAGCAAUAUUACGAACG | -2.06 ± 0.15 | -1.27 ± 0.15
GUCAAGCAAUAUUACGAGGU | -2.65 ± 0.26 | -3.03 ± 0.37
GUCAAGCAAUAUUACGAGUG | -3.56 ± 0.17 | -1.69 ± 0.16
GUCAAGCAAUAUUACGAUCA | -1.76 ± 0.23 | -0.845 ± 0.15
GUCAAGCAAUAUUACGCGAU | -4.38 ± 0.28 | -3.64 ± 0.39
GUCAAGCAAUAUUACGCGUC | -2.99 ± 0.15 | -2.22 ± 0.19
GUCAAGCAAUAUUACGCUCG | -2.95 ± 0.14 | -1.18 ± 0.12
GUCAAGCAAUAUUACGCUGU | -3.26 ± 0.13 | -2.42 ± 0.19
GUCAAGCAAUAUUACGGAUA | -2.47 ± 0.19 | -1.27 ± 0.17
GUCAAGCAAUAUUACGGCCG | -2.31 ± 0.4 | –
GUCAAGCAAUAUUACGGCGG | -4.75 ± 0.32 | -2.83 ± 0.24
GUCAAGCAAUAUUACGGCGU | -1.04 ± 0.083 | -0.0377 ± 0.1
GUCAAGCAAUAUUACGGGCA | -3.61 ± 0.41 | -2.97 ± 0.3
GUCAAGCAAUAUUACGGGCC | -3.75 ± 0.27 | -2.77 ± 0.31
GUCAAGCAAUAUUACGGGGU | -5.42 ± 0.25 | -4.15 ± 0.19
GUCAAGCAAUAUUACGGUAG | -3.35 ± 0.18 | -4.66 ± 0.38
GUCAAGCAAUAUUACGGUUU | -2.48 ± 0.075 | -1.44 ± 0.077
GUCAAGCAAUAUUACGUAUU | -2.98 ± 0.12 | -1.84 ± 0.1
GUCAAGCAAUAUUACGUCCA | -2.58 ± 0.25 | -0.387 ± 0.12
GUCAAGCAAUAUUACGUCCG | – | -3.83 ± 0.39
GUCAAGCAAUAUUACGUGUG | -2.69 ± 0.068 | -1.61 ± 0.071
GUCCAGCAAUAUUACGACGU | 0.172 ± 0.091 | 0.365 ± 0.085

Sequence | self-splicing fitness (ln) (30 °C) | self-splicing fitness (ln) (37 °C)
GUCCAGCAAUAUUACGAUAU | -0.337 ± 0.056 | 0.114 ± 0.065
GUCCAGCAAUAUUACGAUCA | -0.611 ± 0.12 | -0.93 ± 0.13
GUCCAGCAAUAUUACGCAAG | -1.32 ± 0.12 | -1.28 ± 0.14
GUCCAGCAAUAUUACGCAGC | -0.998 ± 0.17 | 0.198 ± 0.14
GUCCAGCAAUAUUACGCCAA | -2.63 ± 0.18 | -2.72 ± 0.16
GUCCAGCAAUAUUACGCCAC | -2.51 ± 0.44 | –
GUCCAGCAAUAUUACGCCUU | -0.571 ± 0.1 | -0.309 ± 0.11
GUCCAGCAAUAUUACGCUCC | -0.889 ± 0.17 | -0.563 ± 0.2
GUCCAGCAAUAUUACGCUUA | -0.882 ± 0.067 | -0.314 ± 0.07
GUCCAGCAAUAUUACGGAGG | -1.76 ± 0.06 | -1.17 ± 0.078
GUCCAGCAAUAUUACGGCCG | -3.67 ± 0.24 | -2.69 ± 0.19
GUCCAGCAAUAUUACGGCGA | -1.32 ± 0.12 | -0.997 ± 0.14
GUCCAGCAAUAUUACGGCUG | -3.93 ± 0.31 | -3.61 ± 0.39
GUCCAGCAAUAUUACGGUAC | -2.97 ± 0.18 | -1.92 ± 0.17
GUCCAGCAAUAUUACGGUCG | -0.533 ± 0.071 | -0.131 ± 0.097
GUCCAGCAAUAUUACGGUGA | -0.608 ± 0.051 | -0.131 ± 0.071
GUCCAGCAAUAUUACGGUGG | -3.36 ± 0.15 | -2.71 ± 0.12
GUCCAGCAAUAUUACGUACA | -1.73 ± 0.1 | -0.367 ± 0.1
GUCCAGCAAUAUUACGUCCG | -4.42 ± 0.29 | -0.283 ± 0.22
GUCCAGCAAUAUUACGUCGC | -0.994 ± 0.096 | 0.0208 ± 0.12
GUCCAGCAAUAUUACGUCGG | -3.83 ± 0.41 | -1.39 ± 0.2
GUCCAGCAAUAUUACGUCUG | -3.8 ± 0.47 | -2.47 ± 0.33
